Drawing on article PMC3081289 (2011), this text covers koff for one molecule.

The target in the assay is T1, Vascular Endothelial Growth Factor (VEGF), receptor binding domain, VEGF_(8–109) (human).
T1 chain: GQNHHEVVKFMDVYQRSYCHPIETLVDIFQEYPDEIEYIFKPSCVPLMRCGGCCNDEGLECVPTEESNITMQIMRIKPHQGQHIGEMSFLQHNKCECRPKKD
Nature of the assay: SPR.

B1: bH1-44 Fab (affinity-improved variant of bH1) (Fab, V domains shown)
VH: EVQLVESGGGLVQPGGSLRLSCAASGFNISGTYIHWVRQAPGKGLEWVARIYPSEGYTRYADSVKGRFTISADTSKNTAYLQMNSLRAEDTAVYYCSRWVGVGFYAMDYWGQGTLVTVSS
VL: DIQMTQSPSSLSASVGDRVTITCRASQNIAKTISGYVAWYQQKPGKAPKLLIYWGSFLYSGVPSRFSGSGSGTDFTLTISSLQPEDFATYYCQQHYSSPPTFGQGTKVEIK
As to B1, the koff (commonly the first-order rate constant of dissociation) came to 0.0014 s⁻¹.
